In patent US20210380703A1 one finds optical density data, which are given here for 15 molecules.

B1: 368_H05 (antibody, V domains shown)
VH: EVQLLESGGGLVQPGGSLRLSCAASGFTFSSYSMNWVRQAPGKGLEWVANINYNGGYKSYADSVKGRFTISRDNSKNTLYLQMNSLRAEDTAVYYCARGANWHDTHLDYWGQGTLVTVSS
VL: DIQMTQSPSSLSASVGDRVTITCRASQSIVSYVNWYQQKPGKAPKLVIYATTSRASGVPSRFSGSGSGTDFTLTISSLQPEDFATYYCQQSYESPLTFGGGTKVEIK
B2: 369_B05 (antibody, V domains shown)
VH: EVQLLESGGGLVQPGGSLRLSCAASGFTFDSYSMNWVRQAPGKGLEWVSGINYNGGYKSYADSVKGRFTISRDNSKNTLYLQMNSLRAEDTAVYYCARGANWHDTHLDYWGQGTLVTVSS
VL: DIQMTQSPSSLSASVGDRVTITCRASQSIISYLNWYQQKPGKAPKLLIYAATSLASGVPSRFSGSGSGTDFTLTISSLQPEDFATYYCQQSYDTPLTFGGGTKVEIK
B3: 369_D03 (antibody, V domains shown)
VH: EVQLLESGGGLVQPGGSLRLSCAASGFTFSSYSMNWVRQAPGKGLEWVSGINYNGGYTSYADSVKGRFTISRDNSKNTLYLQMNSLRAEDTAVYYCARGANWHDTHLDYWGQGTLVTVSS
VL: DIQMTQSPSSLSASVGDRVTITCRASQSILTYLNWYQQKPGKAPKLVIYAATSRASGVPSRFSGSGSGTDFTLTISSLQPEDFATYYCQQSYENPLTFGGGTKVEIK
B4: 369_D09 (antibody, V domains shown)
VH: EVQLLESGGGLVQPGGSLRLSCAASGFTFSDYGMNWVRQAPGKGLEWVSNINYNGGYTSYADSVKGRFTISRDNSKNTLYLQMNSLRAEDTAVYYCARGANWHDTALDYWGQGTLVTVSS
VL: DIQMTQSPSSLSASVGDRVTITCRASQSILTYLNWYQQKPGKAPKLLIYAATSRASGVPSRFSGSGSGTDFTLTISSLQPEDFATYYCQQSYDSPLTFGGGTKVEIK
B5: 370_F03 (antibody, V domains shown)
VH: EVQLLESGGGLVQPGGSLRLSCAASGFTFSSYGMNWVRQAPGKGLEWVSSINYNSGYKSYADSVKGRFTISRDNSKNTLYLQMNSLRAEDTAVYYCARGANWHDTALDYWGQGTLVTVSS
VL: DIQMTQSPSSLSASVGDRVTITCRASQSILSYVNWYQQKPGKAPKLLIYAATSRASGVPSRFSGSGSGTDFTLTISSLQPEDFATYYCQQSYENPLTFGGGTKVEIK
B6: 367_B09 (antibody, V domains shown)
VH: EVQLLESGGGLVQPGGSLRLSCAASGFTFDSYGMHWVRQAPGKGLEWVASINYNGGYTSYADSVKGRFTISRDNSKNTLYLQMNSLRAEDTAVYYCARAANWHDTALDYWGQGTLVTVSS
VL: DIQMTQSPSSLSASVGDRVTITCRASQSILSYVNWYQQKPGKAPKLVIYAATSRASGVPSRFSGSGSGTDFTLTISSLQPEDFATYYCQQSYENPLTFGGGTKVEIK
B7: 369_C05 (antibody, V domains shown)
VH: EVQLLESGGGLVQPGGSLRLSCAASGFTFDSYSMNWVRQAPGKGLEWVAGINYNGGYTSYADSVKGRFTISRDNSKNTLYLQMNSLRAEDTAVYYCARGANWHDTALDYWGQGTLVTVSS
VL: DIQMTQSPSSLSASVGDRVTITCRASQSISSYVNWYQQKPGKAPKLVIYATTSRHSGVPSRFSGSGSGTDFTLTISSLQPEDFATYYCQQSYNSPLTFGGGTKVEIK
B8: 370_B03 (antibody, V domains shown)
VH: EVQLLESGGGLVQPGGSLRLSCAASGFTFSSYSMNWVRQAPGKGLEWVANINYNGGYTGYADSVKGRFTISRDNSKNTLYLQMNSLRAEDTAVYYCARGANWHDTALDYWGQGTLVTVSS
VL: DIQMTQSPSSLSASVGDRVTITCRASQSILSYLNWYQQKPGKAPKLVIYAATSRASGVPSRFSGSGSGTDFTLTISSLQPEDFATYYCQQSYNNPLTFGGGTKVEIK
B9: 370_D05 (antibody, V domains shown)
VH: EVQLLESGGGLVQPGGSLRLSCAASGFTFDDYSMNWVRQAPGKGLEWVSNINYNGGYKGYADSVKGRFTISRDNSKNTLYLQMNSLRAEDTAVYYCARGANWHDTALDYWGQGTLVTVSS
VL: DIQMTQSPSSLSASVGDRVTITCRASQSIITYLNWYQQKPGKAPKLVIYAATSRHSGVPSRFSGSGSGTDFTLTISSLQPEDFATYYCQQSYDTPLTFGGGTKVEIK
B10: 370_B12 (antibody, V domains shown)
VH: EVQLLESGGGLVQPGGSLRLSCAASGFTFSDYSMNWVRQAPGKGLEWVSGINYNGGYKGYADSVKGRFTISRDNSKNTLYLQMNSLRAEDTAVYYCARGANWHDTALDYWGQGTLVTVSS
VL: DIQMTQSPSSLSASVGDRVTITCRASQSILSYVNWYQQKPGKAPKLVIYATTSRASGVPSRFSGSGSGTDFTLTISSLQPEDFATYYCQQSYETPLTFGGGTKVEIK
B11: 369_E06 (antibody, V domains shown)
VH: EVQLLESGGGLVQPGGSLRLSCAASGFTFSSYGMNWVRQAPGKGLEWVSGINYNGGYTSYADSVKGRFTISRDNSKNTLYLQMNSLRAEDTAVYYCARGANWHDTALDYWGQGTLVTVSS
VL: DIQMTQSPSSLSASVGDRVTITCRASQSIISYLNWYQQKPGKAPKLVIYAATSRHSGVPSRFSGSGSGTDFTLTISSLQPEDFATYYCQQSYDSPLTFGGGTKVEIK
B12: 370_B11 (antibody, V domains shown)
VH: EVQLLESGGGLVQPGGSLRLSCAASGFTFDSYSMNWVRQAPGKGLEWVSGINYNSGYTSYADSVKGRFTISRDNSKNTLYLQMNSLRAEDTAVYYCARGANWHDTHLDYWGQGTLVTVSS
VL: DIQMTQSPSSLSASVGDRVTITCRASQSILSYLNWYQQKPGKAPKLVIYAATSRHSGVPSRFSGSGSGTDFTLTISSLQPEDFATYYCQQGYDLPLTFGGGTKVEIK
B13: 369_D07 (antibody, V domains shown)
VH: EVQLLESGGGLVQPGGSLRLSCAASGFTFSSYGMNWVRQAPGKGLEWVSGINYNGGYKSYADSVKGRFTISRDNSKNTLYLQMNSLRAEDTAVYYCARGANWHDTHLDYWGQGTLVTVSS
VL: DIQMTQSPSSLSASVGDRVTITCRASQSIVSYLNWYQQKPGKAPKLVIYAATSRASGVPSRFSGSGSGTDFTLTISSLQPEDFATYYCQQSYDLPLTFGGGTKVEIK
B14: 370_A02 (antibody, V domains shown)
VH: EVQLLESGGGLVQPGGSLRLSCAASGFTFDSYGMNWVRQAPGKGLEWVAGINYNGGYTGYADSVKGRFTISRDNSKNTLYLQMNSLRAEDTAVYYCARGANWHDTALDYWGQGTLVTVSS
VL: DIQMTQSPSSLSASVGDRVTITCRASQSIVTYLNWYQQKPGKAPKLVIYAATSRASGVPSRFSGSGSGTDFTLTISSLQPEDFATYYCQQSYDSPLTFGGGTKVEIK
B15: 369_A07 (antibody, V domains shown)
VH: EVQLLESGGGLVQPGGSLRLSCAASGFTFSSYSMNWVRQAPGKGLEWVAGINYNGGYKGYADSVKGRFTISRDNSKNTLYLQMNSLRAEDTAVYYCARGANWHDTALDYWGQGTLVTVSS
VL: DIQMTQSPSSLSASVGDRVTITCRASQSILSYLNWYQQKPGKAPKLVIYAATSRASGVPSRFSGSGSGTDFTLTISSLQPEDFATYYCQQSYESPLTFGGGTKVEIK

The target in the experiment is human Fc (human). Briefly: ELISA, negative control. For orientation: An ELISA detects its analyte on a solid surface through an enzyme-linked reagent.
With B1, the optical density was 0.277 OD.

In turn, B2 yielded an optical density of 0.314 OD.

As to B3, the optical density was found to be 0.391 OD.

In the case of B4, the optical density amounted to 0.287 OD.

B5: the optical density is 0.373 OD.

Consider B6, for which the optical density came to 0.476 OD.

In the case of B7, the optical density was 0.32 OD.

In turn, B8 registered an optical density of 0.3 OD.

As for B9, the optical density came to 0.333 OD.

Molecule B10 had an optical density of 0.478 OD.

For the molecule B11, the optical density worked out at 0.306 OD.

Molecule B12 registered an optical density of 0.326 OD.

On to B13, for which the optical density stood at 0.363 OD.

For B14, the optical density was found to be 0.425 OD.

For B15, the optical density came out at 0.288 OD.
